From US20210130420A1, “RECOMBINANT BINDING PROTEINS TARGETING HER2 AND SERUM ALBUMIN, AND THEIR USES” (Molecular Partners AG, priority 2016, published 2021)
Where a chain is given by its changes, count along the chain named. Entries after “also recorded” stand apart in the source; their conditions may differ.

B1: Protein #21-His: SEQ ID NO: 21 with a His-tag (SEQ ID NO: 1) fused to its N terminus (protein)
chain: MRGSHHHHHHGSDLGKKLLEAARAGQDDEVRELLKAGADVNAKDYFSHTPLHLAARNGHLKIVEVLLKAGADVNAKDFAGKTPLHLAANEGHLEIVEVLLKAGADVNAQDIFGKTPADIAADAGHEDIAEVLQKAAGSPTPTPTTPTPTPTTPTPTPTGSDLGIKLLFAAAKGQDDEVRELLKAGADVNAKDFQGVTPLHIAAQSGHLEIVEVLLKAGADVNAKDVTGDTPLHLAAQHGHLEIVEVLLKAGADVNAQDERGWTPADLAADWGHEDIAEVLQKAAGSPTPTPTTPTPTPTTPTPTPTGSDLGKKLLEAARAGQDDEVRELLKAGADVNAKDEYGLTPLYLATAHGHLEIVEVLLKAGADVNAVDAIGFTPLHLAAFIGHLEIAEVLLKAGADVNAQDKFGKTPADIAAGAGNEDIAEVLQKAAGSPTPTPTTPTPTPTTPTPTPTGSDLGKKLLEAARAGQDDEVRELLKAGADVNAKDYFSHTPLHLAARNGHLKIVEVLLKAGADVNAKDFAGKTPLHLAANEGHLEIVEVLLKAGADVNAQDIFGKTPADIAADAGHEDIAEVLQKAA
modifications: Protein comprising four designed ankyrin repeat domains
B2: Protein #14-His: SEQ ID NO: 14 with a His-tag; stability-improved serum albumin binding designed ankyrin repeat domain, aspartate 80 of SEQ ID NO: 13 mutated to glutamate (protein)
chain: GSDLGKKLLEAARAGQDDEVRELLKAGADVNAKDYFSHTPLHLAARNGHLKIVEVLLKAGADVNAKDFAGKTPLHLAANEGHLEIVEVLLKAGADVNAQDIFGKTPADIAADAGHEDIAEVLQKAA
modifications: His-tag; Designed ankyrin repeat domain
B3: Protein #13-His: SEQ ID NO: 13 with a His-tag; designed ankyrin repeat domain with binding specificity for serum albumin (WO2012/069654) (protein)
chain: B2 chain with E80D
modifications: His-tag; Designed ankyrin repeat domain

Key:
[1] = Pharmacokinetic analysis in mouse; format: in vivo
Procedure: The measurements shown in this example are the result of a half-life engineering effort as described in Example 11. Protein #21-His and Protein #23-His were expressed and purified as described in Example 1. The pharmacokinetic properties of the His-tagged proteins were assessed in mouse as described elsewhere (Zahnd, C., Kawe, M., Stumpp, M. T., de Pasquale, C., Tamaskovic, R., Nagy-Davidescu, G., Dreier, B., Schibli, R., Binz, H. K., Waibel, R., Plückthun, A., Cancer Res. 70, 1595-1605, 2010). […] Having SEQ ID NO: 16 present in the recombinant binding protein thus appears to be more favorable than having SEQ ID NO: 18 present.
Polypeptide linkers that link protein domains are well-known to the person skilled in the art. Gly-Ser-rich linkers are well-known from single-chain Fv antibody fragments, where they have proven to be most appropriate to link the two Fv polypeptide chains. […] Protein #26-His and Protein #27-His, were expressed and purified as described in Example 1. Pharmacokinetic analyses in mouse were performed as described in Example 8.
(§1) For the studies in this example Protein #21-His, Protein #24-His, Protein #28-His, Protein #29-His, and Protein #30-His were prepared according to Example 1. Protein #28-His was additionally PEGylated using a 40 kDa PEG moiety (NOF Sunbright GL2-400MA) by maleimid coupling of the PEG-moiety onto the free C-terminal cysteine of Protein #28-His, followed by purification to homogeneity using standard purification methods, procedures well known to the person skilled in the art. Pharmacokinetic analyses in mouse or cynomolgus monkey were performed as described in Examples 8 and 9.

[2] = Pharmacokinetic analysis in cynomolgus monkey; format: in vivo
Procedure: The measurements shown in this example are the result of a half-life engineering effort as described in Example 11. Protein #21-His, Protein #23-His, and Protein #24-His were expressed and purified as described in Example 1. The pharmacokinetic properties of the proteins were assessed in cynomolgus monkey. Proteins were administered via intravenous infusion for 30 min at a target dose level of between 1 mg/kg to cynomolgus monkeys. Blood samples were collected pre-dose and again at selected time points, for example 5 min, 10 min, 0.5 hours, 1 hour, 2 hours, 4 hours, 8 hours, 12 hours, 24 hours, 48 hours, 72 hours, 96 hours, 120 hours, 144 hours, 168 hours, 192 hours, 216 hours, and 240 hours post-end of infusion (i.e. post-injection). The blood samples were allowed to stand at room temperature and were centrifuged to generate serum, followed by storage at −80° C. pending analyses. Pharmacokinetic parameters were determined using procedures well known to the person skilled in the art. Serum concentrations of proteins were determined by sandwich ELISA using a rabbit monoclonal anti-designed ankyrin repeat domain antibody as capture reagent and murine monoclonal anti-designed ankyrin repeat domain antibody as detection reagent, and using a standard curve. Pharmacokinetic parameters were determined using standard software such as Phoenix WinNonLin (Certara, Princeton, USA) or Graph Pad Prism (GraphPad Software, La Jolla, USA) and standard analyses such as non-compartmental analyses. […] Target mediated clearance is well-known to the person skilled in the art and is known from e.g. antibodies targeting HER2.
Similarly, Protein #21-His was expressed and purified as described in Example 1. The pharmacokinetic properties of the proteins were assessed in cynomolgus monkey as described above at 1 mg/kg, 5 mg/kg and 10 mg/kg.
Similar results are observed when testing Protein #21 (expressed and purified as described in Example 1). The pharmacokinetic properties of the proteins are assessed in cynomolgus monkey as described above at 1 mg/kg, 10 mg/kg and 100 mg/kg. Pharmacokinetic parameters are evaluated as described above.
as §1

[3] = system: BT474 human breast carcinoma cells; assay: BT474 breast cancer tumor xenograft mouse model; format: in vivo
Procedure: Protein #21-His, Protein #23-His, Protein #24-His, Protein #25-His were expressed and purified as described in Example 1. […] BT474 breast cancer tumor xenograft mouse models were essentially performed as follows using procedures well known to the person skilled in the art: BT474 human breast carcinoma cells were cultured, resuspended, and 2*10^7 cells in 200 μl RPMI 1640 medium containing 50:50 matrigel (BD Biosciences) per mouse were injected into the right flank of female Balb/c nude mice. […] Tumor volumes were measured for 32 days.
In a similar study using BT474 cells (identical setup and procedure; all 35 mg/kg doses), Protein #21-His was compared to Protein #23-His, Protein #24-His, and Protein #25-His.

[4] = Storage stability in PBS analysed by SDS-PAGE; format: physicochemical
Procedure: “Improved storage stability” in the context of the present invention means the reduction of the amounts of a degradation band, preferably the reduction of the amount of degradation products, as detected by a Coomassie-stained SDS-PAGE occurring after storage at 40° C. for 1 month at 10 mg/ml in PBS, by at least 5%, 10%, 15%, 20%, 25%, 30%, 35%, 40%, 45%, 50%, or 50%. Methods to assess storage stability by SDS-PAGE are well known to the person skilled in the art. Examples of designed ankyrin repeat domains and recombinant binding proteins with improved storage stability properties are given in Examples 2 and 3.
Protein #13-His, Protein #14-His and Protein #15-His were prepared as described in Example 1, and samples were concentrated to 10 mg/ml in PBS. Protein #14-His and Protein #15-His where then stored for 1 month at −80° C. or at 40° C. in glass vials, followed by analysis on SDS 15% PAGE. […] These findings illustrate that Protein #14-His has improved storage stability compared to Proteins #13-His and Protein #15-His.
A storage stability improvement is also observed, when testing the storage stability of Protein #21 and Protein #22 (recombinant binding proteins consisting of the amino acid sequences corresponding to SEQ ID NOs: 21 and 22, respectively). Protein #21 and Protein #22 are prepared as described in Example 1, samples are concentrated to 10 mg/ml in PBS and stored for 1 month at −80° C. in or at 40° C. in glass vials, followed by analysis on standard size-exclusion chromatography.

[5] = Thermal unfolding, midpoint of thermal denaturation; format: physicochemical; conditions: pH 6.0
Description: Degradation may for example occur in the vicinity of any one of the 5 asparagines (including asparagine-glycine dipeptides), 13 aspartates, or 10 glycines of SEQ ID NO: 13, amongst additional potential degradation sites. SEQ ID NO: 13 further comprises a number of potential oxidation sites. […] When mutating aspartate at position 80 of SEQ ID NO: 13 to glutamate, a functional designed ankyrin repeat domain with binding specificity for serum albumin was generated, corresponding to SEQ ID NO: 14, which does show a marked improvement in storage stability (Example 3; FIGS. 2A and 2B).

Row | Molecule | % ID remaining after 48 hours [1] | terminal half-life [1] | concentration below which target-mediated clearance is observed [2] | terminal half-life ([2]; 1 mg/kg, intravenous infusion) | inhibition of tumor growth ([3]; Protein #21-His 35 mg/kg, Trastuzumab 10 mg/kg, i.v. Q3Dx7, tumor volumes measured for 32 days, FIG. 4A) | tumor suppression compared to Protein #24-His ([3]; after 32 days of treatment, FIG. 4B) | tumor suppression compared to other recombinant binding proteins ([3]; all 35 mg/kg doses, day 18 of treatment, FIG. 4B) | stability upon storage at −80° C. ([4]; 10 mg/ml in PBS, 1 month at −80° C., SDS 15% PAGE) | reduction of degradation products compared to Protein #15-His ([4]; 10 mg/ml in PBS, glass vials, 1 month at 40° C., SDS 15% PAGE) | reduction of degradation products compared to Protein #13-His ([4]; 10 mg/ml in PBS, one week at 40° C., SDS 15% PAGE) | reduction of degradation products compared to Protein #13-His ([4]; 10 mg/ml in PBS, one week at 60° C., SDS 15% PAGE) | midpoint of thermal denaturation Tm [5] | degradation upon prolonged incubation ([4]; in PBS at 10 mg/ml at 40° C.)
1 | B1 | 19.5 % ID | 30.4 h | below 100 nM | 47 h | more efficacious in inhibiting tumor growth than Trastuzumab | significantly better tumor suppression than Protein #24-His | more efficacious in suppressing tumors than Protein #23-His, Protein #24-His, or Protein #25-His; also recorded: significantly more efficacious in inhibiting tumor growth than Protein #24-His | – | – | – | – | – | –
2 | B2 | – | – | – | – | – | – | – | equivalent stability | > 50% | > 50% | > 50% | 89.5 °C | –
3 | B3 | – | – | – | – | – | – | – | – | – | – | – | 86 °C | degrade
